In patent US9550980B2, “Composition and methods for the production of L-homoalanine” (The Regents of the University of California, priority 2010, dated 2017):

Legend:
[1] = system: 2-ketobutyrate; assay: Conversion of fed 2-ketobutyrate to L-homoalanine by E. coli BW25113 overexpressing amination enzymes; type: cell-based, Escherichia coli; parameters: L-homoalanine produced: unit not given here
Protocol: FIG. 2 is a graph comparing different amination enzymes on the production of L-homoalanine. E. coli cultures were inoculated in M9 medium with addition of 10 g/L 2-ketobutyrate and incubated at 37° C. for 24 h. The horizontal axis labels are defined as follows: (A) Wild-type E. coli BW25113; overexpression of (B) transaminase IlvE (C) valine dehydrogenase from Streptomyces avermitilis; (D) valine dehydrogenase from Streptomyces coelicolor, (E) valine dehydrogenase from Streptomyces fradiae; (F) evolved glutamate dehydrogenase GDH1; and (G) evolved glutamate dehydrogenase GDH2. The error bars represent standard deviations from three independent experiments.
In order to check if any endogenous transaminase of E. coli can work on 2-ketobutyrate, we fed 10 g/L 2-ketobutyrate to wildtype E. coli strain BW25113 growing in M9 medium. […] Since the branched-chain amino acid aminotransferase IlvE (see, e.g. Inoue K, et al. (1988) J Biochem 104(5):777-784) is likely to be a functional candidate, we cloned and overexpressed IlvE in BW25113, which increased the production of L-homoalanine to […] (FIG. 2B). […] However, high concentration of glutamate is needed to drive the reaction equilibrium because transamination is a reversible reaction process. Even under such extreme conditions, the conversion rate of transaminating 2-ketobutyrate to L-homoalanine is only 32%.
To test the conversion of 2-ketobutyrate to L-homoalanine, plasmids pZElac_IlvE, pZElac_VDHsa, pZElac_VDHsc, pZElac_VDHsf, pZElac_GDH and pZElac_GDH2 were transformed into BW25113. The transformants were inoculated in M9 medium with 5 g/L yeast extract, 10 g/L ammonium hydrochloride and 20 g/L glucose. Once OD reached ˜1.0, 10 g/L 2-ketobutyrate plus 0.1 mM IPTG were added and incubated at 37° C. for 24 h. Amino acids were quantified as o-phthaldialdehyde (OPA) derivatives by HPLC analysis.

[2] = system: threonine; assay: Production of L-homoalanine from glucose by E. coli overexpressing GDH2 and threonine dehydratases; type: cell-based, Escherichia coli; conditions: overexpression in BW25113
Source text: FIG. 5A is a graph with horizontal axis labels defined as follows: (1) BW25113; (2) BW25113 with overexpression of GDH2; (3) ATCC98082 with overexpression of TdcB & GDH2; (4) ATCC98082 with overexpression of IlvAEc & GDH2; (5) ATCC98082 with overexpression of IlvABS & GDH2; and (6) ATCC98082 (ArhtA) with overexpression of IlvABS and GDH2. FIG. 5B is a graph showing the yield of L-homolalanine biosynthesis from glucose. The error bars represent standard deviations from three independent experiments.
To test the production of L-homoalanine from glucose, E. coli strain ATCC98082 harboring plasmid pZS_thrO (see, e.g. Zhang et al. (2008) Proc Natl Acad Sci USA 105(52):20653-20658) was transformed with pZElac_tdcB_GDH, pZElac_ilvAEC_GDH and pZElac_ilvABS_GDH. These transformants were subjected to fermentation using the following production medium: 30 g glucose, 17 g (NH4)2SO4, 2 g KH2PO4, 1 g MgSO4.7H2O, 2 g yeast extract, 0.1 g L-valine, 0.01 g FeSO4:7H2O and 0.01 g MnSO4:7H2O per liter. Antibiotics were added appropriately (ampicillin 50 mg/L, spectinomycin 25 mg/L). Overnight 2XYT culture were diluted 25× into fermentation medium and 0.1 mM isopropyl-b-D-thiogalactoside (IPTG) was added to induce protein expression. In shake flask experiments, the culture medium was buffered by addition of 30 g/L CaCO3. Cultures were incubated in 33° C. shaker (250 rpm) for 40-50 h until glucose was consumed.

[3] = Enzymatic assay of purified glutamate dehydrogenases, amination of 2-ketobutyrate (NADPH consumption at 340 nm); type: biochemical
Protocol: To characterize the enzymes, both the wild-type glutamate dehydrogenase GDHwt and mutant GDH2 were added an N-terminal 6×His-tag, overexpressed, and purified through Ni-NTA columns. The kinetic parameters for […] of 2-ketoglutarate (cognate substrate) and 2-ketoisovalerate or 2-ketobutyrate (nonnatural substrates) were determined by monitoring the consumption of NADPH at 340 nm (FIG. 6). […] The increase in binding affinity is very helpful since high concentration of 2-ketobutyrate interferes with cellular metabolic activities (see, e.g. Daniel et al. (1983) Mol Gen Genet 190(3):452-458). On the basis of the crystallographic model for the active site of GDH, amino group of K92 hydrogenbonds to the γ-carboxyl group of 2-ketoglutarate and determines the substrate specificity (see, e.g. Stillman et al. (1993) J Mol Biol 234(4):1131-1139). Mutation of lysine to valine increases the hydrophobic character of the binding pocket, which explains why the specificity constant kcat/Km of GDH2 towards 2-ketobutyrate is 50-fold higher than that towards the natural substrate 2-ketoglutarate.
Both gene fragments encoding wildtype glutamate dehydrogenase and GDH2 were amplified using primers GDHbamfwd and GDHbamrev. After digestion with BamHI, the gene fragments were inserted into expression plasmid pQE9 (Qiagen). The resulting expression plasmids were transformed into E. coli strain BL21(DE3) harboring pREP4 (Qiagen). Cells were inoculated from an overnight preculture at 1/100 dilution and grown in 200 mL 2XYT rich medium containing 50 mg/L ampicillin and 25 mg/L kanamycin. At an OD600 of 0.6, recombinant proteins were expressed by induction of the cell cultures with 0.1 mM IPTG, followed by incubation at 30° C. overnight. Overexpressed proteins were then purified with Ni-nitrilotriacetic acid columns. Protein concentration was determined by measuring UV absorbance at 280 nm.
(§1) Enzymatic assay was performed in assay buffer (100 mM Tris buffer, pH 8.0) containing 0.2M NH4Cl, 0.2 mM NADPH, and various concentrations of 2-ketoacids. The reactions were started by adding the purified enzymes, and the consumption of NADPH was monitored at 340 nm (extinction coefficient, 6.22 mM^−1 cm^−1). Kinetic parameters (kcat and Km) were determined by fitting initial velocity data to the Michaelis-Menten equation using Origin.

[4] = Enzymatic assay of purified glutamate dehydrogenases, amination of 2-ketoisovalerate (NADPH consumption at 340 nm); type: biochemical
Protocol: (§2) To characterize the enzymes, both the wild-type glutamate dehydrogenase GDHwt and mutant GDH2 were added an N-terminal 6×His-tag, overexpressed, and purified through Ni-NTA columns. The kinetic parameters for […] of 2-ketoglutarate (cognate substrate) and 2-ketoisovalerate or 2-ketobutyrate (nonnatural substrates) were determined by monitoring the consumption of NADPH at 340 nm (FIG. 6). […] The increase in binding affinity is very helpful since high concentration of 2-ketobutyrate interferes with cellular metabolic activities (see, e.g. Daniel et al. (1983) Mol Gen Genet 190(3):452-458). […]
(§3) Both gene fragments encoding wildtype glutamate dehydrogenase and GDH2 were amplified using primers GDHbamfwd and GDHbamrev. […] Protein concentration was determined by measuring UV absorbance at 280 nm.
as §1

[5] = Enzymatic assay of purified glutamate dehydrogenases, amination of 2-ketoglutarate (NADPH consumption at 340 nm); type: biochemical
Protocol: as §2, §3, §1

[6] = system: valine auxotrophic E. coli (ΔavtA, ΔilvE); assay: Growth rescue of valine auxotrophic E. coli (ΔavtA, ΔilvE) in M9 minimal medium; type: cell-based, Escherichia coli; conditions: absence of valine
Source text: FIG. 4A illustrates a binding pocket of Clostridium symbiosum glutamate dehydrogenase (PDB: 1BGV) complexed with its natural substrate glutamate. Residues K89, T193, V377, and S380 are within a radius of 6 Å of the γ-carbon of glutamate. […] The binding pocket is conserved, and the corresponding residues of E. coli GDH are K92, T195, V377, and S380. These residues were subjected to site-saturation mutagenesis with randomized NNK codon. A library size of 2 million members was transformed into valine auxotrophic E. coli and selected for mutants growing in M9 minimal medium. FIG. 4C is a graph showing the growth curve of E. coli (AavtA, AilvE) transformants in minimal medium. −Val means absence of valine. +Val means presence of valine. Or cells are transformed with GDH1 (K92L, T195A, V377A, and S380C mutations) or GDH2 (K92V and T195S mutations) mutant.
To this end, we have developed a selection strategy to evolve GDH. Deletion of transaminase genes avtA and ilvE from the chromosome makes wild-type E. coli valine auxotrophic (see, e.g. Wang et al. (1987) J Bacteriol 169(9):4228-4234), whose growth in minimal medium can be rescued by a mutant GDH active on aminating the valine precursor 2-ketoisovalerate (FIG. 3B). […]

B1: GDH2: evolved E. coli glutamate dehydrogenase mutant with K92V and T195S mutations (protein, listed as Escherichia coli)
chain: MDQTYSLESFLNHVQKRDPNQTEFAQAVREVMTTLWPFLEQNPKYRQMSLLERLVEPERVIQFRVVWVDDRNQIQVNRAWRVQFSSAIGPYVGGMRFHPSVNLSILKFLGFEQTFKNALTTLPMGGGKGGSDFDPKGKSEGEVMRFCQALMTELYRHLGADTDVPAGDIGVGGREVGFMAGMMKKLSNNTACVFSGKGLSFGGSLIRPEATGYGLVYFTEAMLKRHGMGFEGMRVSVSGSGNVAQYAIEKAMEFGARVITASDSSGTVVDESGFTKEKLARLIEIKASRDGRVADYAKEFGLVYLEGQQPWSLPVDIALPCATQNELDVDAAHQLIANGVKAVAEGANMPTTIEATELFQQAGVLFAPGKAANAGGVATSGLEMAQNAARLGWKAEKVDARLHHIMLDIHHACVEHGGEGEQTNYVQGANIAGFVKVADAMLAQGVI
productivity of L-homoalanine ([1]; 10 g/L 2-ketobutyrate fed): 5.1 g/L/day | conversion yield of 2-ketobutyrate to L-homoalanine ([1]; 10 g/L 2-ketobutyrate, no glutamate feeding): 50% | L-homoalanine produced ([1]; BW25113 transformant, 10 g/L 2-ketobutyrate fed, M9 medium, 37° C., 24 h): 5.1 | L-homoalanine produced from glucose [2]: 0.1 g/L | decrease in Km on 2-ketobutyrate compared to GDHwt [3]: 4 fold | increase in kcat on 2-ketobutyrate compared to GDHwt [3]: 2 fold | kcat towards 2-ketobutyrate ([3]; 100 mM Tris pH 8.0, 0.2M NH4Cl, 0.2 mM NADPH): 90.2 s⁻¹ | Km ([3]; 100 mM Tris pH 8.0, 0.2M NH4Cl, 0.2 mM NADPH, read-out: Km towards 2-ketobutyrate): 8.4 mM | specificity constant kcat/Km towards 2-ketobutyrate, higher than towards 2-ketoglutarate ([3]; 2-ketobutyrate versus natural substrate 2-ketoglutarate): 50 fold | kcat towards 2-ketoisovalerate relative to GDHwt [4]: five times higher kcat than GDHwt | specificity constant kcat/Km towards 2-ketoglutarate, smaller than that of GDHwt [5]: ~3,000 fold | rescue of cell growth without valine [6]: successfully rescued the valine auxotrophic phenotype
